Key:
[1] = target: CGRP receptor on human MDA-MB-231BR breast cancer cells (human) (UniProt Q16602); assay: cell-based or functional assay
[2] = target: CGRP receptor on rat CNS1 glioma cells (rat) (UniProt Q63118); assay: cell-based or functional assay
Sequence of CGRP receptor on rat CNS1 glioma cells (rat) (Q63118 24-464, chain 1 of 2): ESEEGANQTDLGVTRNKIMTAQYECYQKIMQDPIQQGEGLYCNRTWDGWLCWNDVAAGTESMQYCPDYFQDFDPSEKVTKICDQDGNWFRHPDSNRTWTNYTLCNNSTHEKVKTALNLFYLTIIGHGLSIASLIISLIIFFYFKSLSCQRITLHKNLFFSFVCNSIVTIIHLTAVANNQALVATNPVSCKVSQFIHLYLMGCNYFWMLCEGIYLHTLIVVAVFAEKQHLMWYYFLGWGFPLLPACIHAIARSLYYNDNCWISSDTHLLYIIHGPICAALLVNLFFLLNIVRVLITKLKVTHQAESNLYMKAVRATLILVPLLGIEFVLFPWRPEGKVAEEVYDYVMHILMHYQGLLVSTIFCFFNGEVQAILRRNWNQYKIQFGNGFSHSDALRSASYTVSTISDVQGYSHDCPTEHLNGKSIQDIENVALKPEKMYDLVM
Sequence of CGRP receptor on rat CNS1 glioma cells (rat) (Q9JJ74 27-148, chain 2 of 2, further chain): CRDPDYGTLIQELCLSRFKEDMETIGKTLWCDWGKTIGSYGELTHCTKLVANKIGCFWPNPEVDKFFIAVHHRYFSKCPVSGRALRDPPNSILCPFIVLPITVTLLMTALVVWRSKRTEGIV

Sequence of CGRP receptor on human MDA-MB-231BR breast cancer cells (human) (Q16602 23-461, chain 1 of 2): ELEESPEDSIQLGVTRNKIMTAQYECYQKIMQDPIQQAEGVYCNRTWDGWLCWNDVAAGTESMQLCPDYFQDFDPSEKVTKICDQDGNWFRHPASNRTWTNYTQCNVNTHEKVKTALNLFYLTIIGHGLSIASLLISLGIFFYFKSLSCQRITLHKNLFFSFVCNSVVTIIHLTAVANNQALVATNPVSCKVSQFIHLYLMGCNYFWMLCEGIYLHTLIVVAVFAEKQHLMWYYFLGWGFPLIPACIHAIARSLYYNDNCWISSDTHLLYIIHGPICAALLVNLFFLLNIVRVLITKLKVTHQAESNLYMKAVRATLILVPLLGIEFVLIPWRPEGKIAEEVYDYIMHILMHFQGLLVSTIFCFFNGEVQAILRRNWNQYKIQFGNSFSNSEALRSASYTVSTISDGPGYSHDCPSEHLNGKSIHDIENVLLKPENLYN
Sequence of CGRP receptor on human MDA-MB-231BR breast cancer cells (human) (O60894 27-148, chain 2 of 2, further chain): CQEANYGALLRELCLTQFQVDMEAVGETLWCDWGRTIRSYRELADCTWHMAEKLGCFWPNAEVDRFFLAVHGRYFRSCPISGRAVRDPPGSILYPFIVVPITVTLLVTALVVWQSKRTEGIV

MDA-MB-231BR cell growth over control, normoxic conditions, 4 days in culture [1]: 6 fold
CNS1 cell growth over control, normoxic conditions, 4 days in culture [2]: 4 fold
CNS1 cell growth over control, normoxic conditions, 5 days in culture [2]: 11 fold
CNS1 glioma growth over control, hypoxic conditions, 4 days in culture [2]: 72 fold
CNS1 glioma growth over control, hypoxic conditions, 5 days in culture [2]: 10 fold
Substance: calcitonin gene-related peptide (CGRP), unlabeled (from UniProt P01256 83-119)

Source: patent publication US20110189205A1
